Measurements: US9186389B2, “Nanoparticles containing pH-responsive peptide” (Taiho Pharmaceutical Co., Ltd., priority 2011, dated 2015)
* marks the point of attachment. Stearoyl = CCCCCCCCCCCCCCCCCC(=O)*

Assay: CD spectra under different pH conditions with predicted secondary structure
Format: physicochemical
Conditions: peptide concentration 20 μM, PBS (−), pH 7.4, 6.5, 6.0, 5.5
Experimental: The peptide obtained in Production Example 1 alone and liposome 1 obtained as in Example 1 (each having a peptide concentration of 20 μM) were suspended in PBS (−) having different pH, and CD (circular dichroism) spectra were recorded on a J-720WI spectropolarimeter (produced by JASCO Corporation). Then, analysis software (see JWSSE-480; Molecular Membrane Biology, July, August 2007; 24 (4): 282-293) was used to predict the composition of the secondary structure in the spectra.
In FIG. 9 below, the “α-helix” represents an a helix structure; the “coil” represents a random coil structure (not forming a clear secondary structure); and “turn” represents a bending structure.

Substance: C17H35—C(O)-GGGGHGAHEHAGHEHAAGEHHAHE-NH2 (Stearoyl-GGGGHGAHEHAGHEHAAGEHHAHE-NH2; SMILES CCCCCCCCCCCCCCCCCC(=O)NCC(=O)NCC(=O)NCC(=O)NCC(=O)N[C@@H](Cc1c[nH]cn1)C(=O)NCC(=O)N[C@@H](C)C(=O)N[C@@H](Cc1c[nH]cn1)C(=O)N[C@@H](CCC(=O)O)C(=O)N[C@@H](Cc1c[nH]cn1)C(=O)N[C@@H](C)C(=O)NCC(=O)N[C@@H](Cc1c[nH]cn1)C(=O)N[C@@H](CCC(=O)O)C(=O)N[C@@H](Cc1c[nH]cn1)C(=O)N[C@@H](C)C(=O)N[C@@H](C)C(=O)NCC(=O)N[C@@H](CCC(=O)O)C(=O)N[C@@H](Cc1c[nH]cn1)C(=O)N[C@@H](Cc1c[nH]cn1)C(=O)N[C@@H](C)C(=O)N[C@@H](Cc1c[nH]cn1)C(=O)N[C@@H](CCC(=O)O)C(N)=O) [Compound 1]
- structural change with pH (CD spectrum): a structural change does not occur unless the pH is lowered to 6.0
